Assay [1] concerns the target T1, mouse LAG-3 overexpressed on HEK293E cells (mouse, UniProt Q61790 24-521).
T1 construct: whole, on cells; also called HEK293E-mLAG3; mLAG3 (Mouse)
T1 sequence (looked up): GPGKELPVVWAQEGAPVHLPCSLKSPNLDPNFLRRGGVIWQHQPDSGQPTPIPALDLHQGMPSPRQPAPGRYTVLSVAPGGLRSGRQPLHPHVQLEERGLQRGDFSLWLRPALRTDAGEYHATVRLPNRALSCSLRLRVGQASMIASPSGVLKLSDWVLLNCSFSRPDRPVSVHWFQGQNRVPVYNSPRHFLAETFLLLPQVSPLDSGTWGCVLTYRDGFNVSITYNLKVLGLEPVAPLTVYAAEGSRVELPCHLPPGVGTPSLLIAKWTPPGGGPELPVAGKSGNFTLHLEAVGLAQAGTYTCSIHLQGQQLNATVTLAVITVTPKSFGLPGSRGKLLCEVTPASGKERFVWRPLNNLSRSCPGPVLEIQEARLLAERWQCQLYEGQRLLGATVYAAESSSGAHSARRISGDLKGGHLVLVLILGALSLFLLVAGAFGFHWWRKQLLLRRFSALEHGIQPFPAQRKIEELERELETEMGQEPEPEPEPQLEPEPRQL
As to the kind of experiment: flow cytometry, HEK293E cells overexpressing mouse LAG-3. How it is done:
(§1) After that, the cells were washed three times with PBS containing 2% FBS and then subjected to the reaction for 30 minutes at 4° C. with anti-human IgG antibody (#FI-3000, Vectorlabs) linked with FITC fluorescent. The cells were washed by the same washing process as above followed by suspension in 0.2 ml PBS containing 2% FBS. The cells were then analyzed by FACSCanto II flow cytometer.

The target in assay [2] is T2, recombinant human LAG-3-his (#16498-H08H, Sino Biological Inc.) (human, UniProt P18627 23-450).
T2 construct: Bought; also called LAG-3-His (WT); not shown: His tag at the carboxy terminal
T2 sequence (looked up): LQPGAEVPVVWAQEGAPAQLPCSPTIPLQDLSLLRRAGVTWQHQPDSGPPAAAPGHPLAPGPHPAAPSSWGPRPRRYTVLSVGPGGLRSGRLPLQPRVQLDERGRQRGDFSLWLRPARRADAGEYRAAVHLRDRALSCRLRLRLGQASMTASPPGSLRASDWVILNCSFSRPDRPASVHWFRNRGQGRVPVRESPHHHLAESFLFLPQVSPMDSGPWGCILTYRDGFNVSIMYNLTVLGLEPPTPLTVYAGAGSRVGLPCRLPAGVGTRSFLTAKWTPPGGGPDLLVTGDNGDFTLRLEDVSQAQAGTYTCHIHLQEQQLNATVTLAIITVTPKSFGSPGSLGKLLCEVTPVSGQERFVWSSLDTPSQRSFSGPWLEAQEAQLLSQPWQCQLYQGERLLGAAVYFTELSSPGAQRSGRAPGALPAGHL
The assay is described as follows: scFv phage ELISA on coated antigen, A490. In general terms: ELISA stands for enzyme-linked immunosorbent assay.

Assay [3] addresses T3, human LAG-3 overexpressed on cells (human, UniProt P18627 23-525).
T3 construct: whole, on cells; also called HEK293E-hLAG3; hLAG3 (Human)
T3 sequence (looked up): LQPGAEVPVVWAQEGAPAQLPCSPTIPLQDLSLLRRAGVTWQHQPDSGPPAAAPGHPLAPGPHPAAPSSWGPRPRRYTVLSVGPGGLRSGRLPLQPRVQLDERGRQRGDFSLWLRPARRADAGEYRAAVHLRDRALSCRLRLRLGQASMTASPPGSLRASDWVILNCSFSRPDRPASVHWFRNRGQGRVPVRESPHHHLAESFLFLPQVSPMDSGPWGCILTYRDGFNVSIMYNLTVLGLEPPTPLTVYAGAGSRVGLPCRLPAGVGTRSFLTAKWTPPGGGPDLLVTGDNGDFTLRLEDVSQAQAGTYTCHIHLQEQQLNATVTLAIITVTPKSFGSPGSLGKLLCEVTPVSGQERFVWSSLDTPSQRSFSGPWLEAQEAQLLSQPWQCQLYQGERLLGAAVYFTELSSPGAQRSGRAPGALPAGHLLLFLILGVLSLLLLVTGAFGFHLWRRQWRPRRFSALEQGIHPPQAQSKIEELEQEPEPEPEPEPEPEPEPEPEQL
As to the kind of experiment: flow cytometry, HEK293E cells overexpressing LAG-3, antibody 2 µg/ml. The procedure: as §1

In assay [4] the target is T4, recombinant monkey LAG-3 fused with mouse Fc (MrhLAG-3-mFc) (monkey).
T4 construct: also called monkey LAG-3 antigen
As to the kind of experiment: Octet biolayer interferometry, 1:1 global fit. The procedure: (§2) After stabilization for 10 minutes in a buffer (#18-1042, Fortebio Inc.), immobilized antigen or antibody was washed out for 5 minutes with the buffer. The antibody or antigen desired for binding was prepared at different concentrations (0.94-60 nM) in a 96-well plate (#655209, Greiner Bio-One, USA) and subjected to the association reaction for 10 minutes followed by dissociation reaction for 10 minutes or 30 minutes.

Assay [5] concerns the target T5, recombinant human LAG-3 extracellular domain fused with mouse Fc (hLAG-3-mFc) (human, UniProt P18627 29-450).
T5 construct: range 29-450; Made in HEK293F cells; also called human LAG-3 antigen; wild-type (WT) LAG-3; not shown: mouse Fc (mFc) at the carboxy terminal
T5 sequence (looked up): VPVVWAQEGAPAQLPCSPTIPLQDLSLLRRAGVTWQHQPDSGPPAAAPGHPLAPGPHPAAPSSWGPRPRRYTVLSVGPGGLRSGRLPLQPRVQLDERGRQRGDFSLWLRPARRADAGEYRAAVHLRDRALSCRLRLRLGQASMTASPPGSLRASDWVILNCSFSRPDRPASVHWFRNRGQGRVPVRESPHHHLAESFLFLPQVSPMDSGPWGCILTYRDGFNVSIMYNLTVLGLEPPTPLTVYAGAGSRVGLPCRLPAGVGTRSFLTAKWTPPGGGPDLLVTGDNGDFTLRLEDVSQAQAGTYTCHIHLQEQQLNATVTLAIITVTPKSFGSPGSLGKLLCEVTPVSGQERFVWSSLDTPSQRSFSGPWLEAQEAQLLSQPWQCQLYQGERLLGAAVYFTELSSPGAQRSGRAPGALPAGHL
As to the kind of experiment: Octet biolayer interferometry, 1:1 global fit. How it is done:
as §2
Background: Biolayer interferometry detects binding as a change in optical thickness at a sensor tip.

Assay [6] concerns the target T3, human LAG-3 overexpressed on cells. As to the kind of experiment: flow cytometry on HEK293E-hLAG3 cells, MFI, fitted curve. The procedure:
as §1
(A flow cytometer gives signals particle by particle.)

In assay [7] the target is T6, monkey (Rhesus monkey) LAG-3 overexpressed on HEK293E cells (Rhesus monkey, UniProt A0A5F8A874 23-533).
T6 construct: whole, on cells; also called HEK293E-MrhLAG3; MrhLAG3 (Rhesus Monkey)
T6 sequence: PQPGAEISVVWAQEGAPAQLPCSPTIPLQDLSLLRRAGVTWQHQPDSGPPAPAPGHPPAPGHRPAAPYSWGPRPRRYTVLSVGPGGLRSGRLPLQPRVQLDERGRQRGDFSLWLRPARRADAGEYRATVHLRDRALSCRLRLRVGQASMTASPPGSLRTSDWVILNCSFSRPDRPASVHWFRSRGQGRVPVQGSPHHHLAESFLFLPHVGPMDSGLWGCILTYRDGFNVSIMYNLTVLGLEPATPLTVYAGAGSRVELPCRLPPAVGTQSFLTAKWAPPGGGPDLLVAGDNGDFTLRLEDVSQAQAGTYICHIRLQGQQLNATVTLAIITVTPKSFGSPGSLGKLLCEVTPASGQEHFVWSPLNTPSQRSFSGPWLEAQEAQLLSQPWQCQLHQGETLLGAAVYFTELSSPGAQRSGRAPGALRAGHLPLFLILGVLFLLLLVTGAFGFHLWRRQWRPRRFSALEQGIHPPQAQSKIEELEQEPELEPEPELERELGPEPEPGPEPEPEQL
The assay is described as follows: flow cytometry on HEK293E-MrhLAG3 cells, MFI, fitted curve. The procedure: as §1

For assay [8], the target named is T1, mouse LAG-3 overexpressed on HEK293E …. As to the kind of experiment: flow cytometry on HEK293E-mLAG3 cells, MFI. The procedure: as §1
For assay [9], the target named is T4, recombinant monkey LAG-3 fused with …. The assay is described as follows: BLI (Octet QKe), 1:1 global fit. How it is done:
as §2

For assay [10], the target named is T5, recombinant human LAG-3 extracellular …. As to the kind of experiment: BLI (Octet QKe), 1:1 global fit. The procedure: as §2
For assay [11], the target named is T7, recombinant mouse LAG-3 fused with mouse Fc (mLAG-Fc) (mouse, UniProt Q61790 24-442, limits assumed).
T7 construct: also called mouse LAG-3 antigen; not shown: mouse Fc (mFc) at the carboxy terminal
T7 sequence (looked up): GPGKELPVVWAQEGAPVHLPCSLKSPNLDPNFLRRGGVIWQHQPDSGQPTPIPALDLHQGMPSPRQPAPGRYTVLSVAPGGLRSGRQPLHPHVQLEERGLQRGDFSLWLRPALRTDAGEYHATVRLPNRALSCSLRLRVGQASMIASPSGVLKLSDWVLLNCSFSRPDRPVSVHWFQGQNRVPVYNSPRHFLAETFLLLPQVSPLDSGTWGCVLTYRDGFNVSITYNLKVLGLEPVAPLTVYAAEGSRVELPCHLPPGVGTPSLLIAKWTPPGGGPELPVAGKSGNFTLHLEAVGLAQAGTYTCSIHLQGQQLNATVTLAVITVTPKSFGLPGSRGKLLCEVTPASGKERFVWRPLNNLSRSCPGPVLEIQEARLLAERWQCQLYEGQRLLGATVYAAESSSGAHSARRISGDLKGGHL
As to the kind of experiment: BLI (Octet QKe).

The target in assay [12] is T3, human LAG-3 overexpressed on cells. As to the kind of experiment: cell-based or functional assay.
Assay [13] addresses T1, mouse LAG-3 overexpressed on HEK293E …. As to the kind of experiment: flow cytometry on HEK293E-mLAG3 cells, MFI, fitted curve. The procedure: as §1
For assay [14], the target named is T7, recombinant mouse LAG-3 fused with …. The assay is described as follows: BLI (Octet QKe), 1:1 global fit. The procedure:
as §2

The target of assay [15] is T2, recombinant human LAG-3-his …. As to the kind of experiment: scFv phage ELISA on coated antigen, A490. This is another data set of the same source.

Where two headings read alike, the source gives them in different places.

B1: LAG3-1E09_AM_2E04 (antibody, V domains shown)
VH: EVQLVESGGDLVKPGGSLRLSCAASGFSFNDHYMNWVRQAPGKGLEWVAYIDTSATYIYYADSVKGRFTISRDNAKNSLYLQMNSLRAEDTAVYYCARDNWGSLDYWGQGTLVTVSS
VL: DIQMTQSPSSLSASVGDRVTIICRASQSISNYLNWYQQEPGKAPKLLIYDASNLESGVPSRFSGSGSGTDFTLTISSLQPEDFATYYCQQSYSTPYTFGQGTKVEIK
notes: Tested as full IgG
B1: the binding result is recorded as “no binding (tested: 2 µg/ml)” in assay [1], “binds” in [2] and “binds” in assay [3].

B2: LAG3-1E09_FR_1E05 (antibody, V domains shown)
VH: EVQLVESGGGLVQPGGSLRLSCAASGFSFSDHYMNWVRQAPGKGLEWVAYIDTSATYIYYADSVKGRFTISRDNAKNSLYLQMNSLRAEDTAVYYCARDNWGSLDYWGQGTLVTVSS
VL: DIQMTQSPSSLSASVGDRVTITCRASQSISSWLAWYQHKPGKAPKLLIYDASNLETGAPSRFSGSGSGTDFTFTIYSLQPEDVATYYCQQYDTVPPTFGPGTKVDIK
notes: Tested as full IgG
Turning to B2, the koff in assay [4] stood at 3.7e-05 s⁻¹; in [5], 1.03e-05 s⁻¹. For the same molecule, the association rate constant (kon) in assay [4] was 81100 M⁻¹ s⁻¹; in assay [5] it was 114000 M⁻¹ s⁻¹. In addition, the results for the EC50 in assay [6] and in assay [7] were 0.0926 µg/mL and 0.301 µg/mL, respectively. Besides, the binding result was “no binding (tested: Log10[Ab] about 0.8, µg/ml)” in assay [8] and “no binding” in [11]. The Kd was determined as 456 pM in assay [9] and 90.6 pM in [10]. Also, the “EC50 (µg/ml), LAG3/MHC class II Blockade bioassay” value in assay [12] stood at 0.0938 µg/mL.

B3: LAG3-1E09_AM_2H01 (antibody, V domains shown)
VH: EVQLVESGGDLVQPGGSLRLSCAASGFTFSDHYMNWVRQAPGKGLEWVAYIDTSATYIYYADSVKGRFTISRDNAKNSLYLQMNSLRAEDTAVYYCARDNWGSLDYWGQGTLVTVSS
VL: DIQMTQSPSSLSASVGDRVTITCQASQDISNYLNWYQQKPGKAPNLLIYDASTLETGVPSRFSGSGYGTDFTLTISGLQPDDFALYYCQQSYSTPYSFGPGTKVEIK
notes: Tested as full IgG
B3: the koff worked out at 3.23e-05 s⁻¹ in assay [4] and 1.61e-05 s⁻¹ in [5]. Besides, the kon in assay [4] is 51400 M⁻¹ s⁻¹; in assay [5] it was 119000 M⁻¹ s⁻¹. Besides, the values for the EC50 in assay [13], in assay [6] and in [7] were 1.74 µg/mL, 0.0297 µg/mL and 0.156 µg/mL, respectively. For the same molecule, the results for the Kd in assay [9], in [14] and in assay [10] were 629 pM, 2620 pM and 136 pM, respectively. Further, the “EC50 (µg/ml), LAG3/MHC class II Blockade bioassay” value in assay [12] stood at 0.0822 µg/mL.

B4: LAG3-1E09_FR_1E09 (antibody, V domains shown)
VH: EVQLVESGGGLVKPGGSLRLSCAASGFSFSDHYMNWIRQAPGKGLEWVAYIDTSATYIYYADSVKGRFTISRDNAKNSLYLQMNSLRAEDTAVYYCARDNWGSLDYWGQGTLVTVSS
VL: DIQMTQSPSSLSASVGDRVTITCQASQDISNYLNWYQQKPGKAPNLLIYDASNLETGVPSRFSGSGSGTDFALTISSLQPEDFATYYCQQSDSTPITFGQGTRLDIK
notes: Tested as full IgG
As to B4, the binding result was “no binding (tested: 2 µg/ml)” in [1], “binds” in assay [15] and “binds” in assay [3].

A word on the koff: it is the first-order rate constant of dissociation. By kon is commonly meant a measure of how fast the partners come together. By EC50 is commonly meant the concentration that produces a half-maximal response. Broadly, the Kd is the concentration at which binding is half-saturated.

For the origin of these results see patent publication US20210238283A1 (Y BIOLOGICS, published 2021).
